Reference: patent US11529390B2, “PCSK9 inhibitory polypolypeptides and methods of use” (INSTITUT DE CARDIOLOGIE DE MONTREAL, priority 2015, dated 2022)

Experiments:
[1] = tested on: PCSK9-induced LDLR degradation; test: PCSK9-induced LDLR degradation in HepG2 cells, extracellular addition, immunoblot; format: cell-based, human
Description: (§1) FIG. 5: SEQ ID NO. 67 blocks PCSK9 internalization and LDLR degradation. Recombinant SEQ ID NO. 67 was added to conditioned media obtained from HEK293 transfected with PCSK9-mCherry or in DMEM together with recombinant human PCSK9, rotated 4 h at 4° C. and added overnight on HepG2 cells as indicated. (a) Following 24 h post-transfection with LDLR-EGFP cDNA (SEQ. ID. NO. 69), HepG2 cells were incubated with PCSK9-mCherry without (−) or with 10 nM SEQ ID NO. 67. Fluorescent proteins were visualized in fixed cells by confocal microscopy. (b) Cells were incubated without or with 25 nM PCSK9 alone or with 0, 10, 25 or 100 nM SEQ ID NO. 67. Total LDLR, SEQ ID NO. 67, PCSK9 and β-actin protein levels were analyzed by immunoblotting in cell lysates and conditioned media as indicated. Data are representative of at least three independent experiments.
FIG. 7: SEQ ID NO. 6 prevents PCSK9-induced LDLR degradation. (a) Left; Coomassie staining of purified recombinant SEQ ID NO. 6 and PCSK9 separated by SDS-PAGE is shown. Right; HepG2 cells were incubated in DMEM without or with 0, 25, 100 or 250 nM SEQ ID NO. 6 alone or in presence of recombinant PCSK9. (b) HepG2 cells were transfected without (−) or with PCSK9-V5 in absence (−) or presence SEQ ID NO. 66 or SEQ ID NO. 46. Total LDLR, PCSK9, SEQ ID NO. 66, SEQ ID NO. 46 and β-actin protein levels were analyzed by immunoblotting in cell lysates and conditioned media as indicated. Data are representative of at least three independent experiments.
For Western blot analyses, SDS-polyacrylamide gels were blotted on nitrocellulose membranes (Cat. #162-0115, Bio-Rad), and blocked for 1 h in Tris-Buffered Saline-Tween 20 (TBS-T; 50 mM Tris-HCl, pH 7.5, 150 mM NaCl, 0.1% Tween 20) containing 5% non-fat dry milk. Membranes were then incubated overnight in TBS-T supplemented with 1% non-fat milk and indicated antibodies: rabbit anti-PCSK9 (1:2500, custom made, GenScript), goat anti-human or anti-mouse LDLR (1:1000; Cat. #AF2148 or #A2255, R&D Systems), rat anti-Grp94 (1:30,000), rabbit anti-GRP78 (1:2500; Cat. #ab21685, Abcam), rabbit anti-GFP (1:2000; Cat. #A11122, Life Sciences), mouse anti-V5-tag (1:5000; Cat. #A00641, GenScript), mouse anti-HA-tag (1:5000), rabbit anti-β-actin (1:5000; Cat. #A2066, Sigma-Aldrich). Appropriate HRP-conjugated secondary antibodies (1:10,000, GE healthcare) were used for detection using the Western Lightning Ultra chemiluminescence kit (Cat. #NE1112001EA, PerkinElmer) and BioFlex EC Films (Cat. #CLEC810, InterScience).
To validate this hypothesis, we therefore first tested the effect of extracellular SEQ ID. NO. […]
We next tested whether SEQ ID. […] (Poirier et al., 2009) As PCSK9 was also shown to induce LDLR degradation via an intracellular pathway, (Poirier et al., 2009) we evaluated to ability of SEQ ID. […]

[2] = tested on: PCSK9-mCherry internalization; test: PCSK9-mCherry internalization in LDLR-EGFP transfected HepG2 cells, confocal microscopy; format: cell-based, human; details: 10 nM recombinant protein, HepG2, overnight, versus control
Description: as §1
Huh-7 cells were washed three times with PBS, fixed with Bouin's solution (0.9% picric acid, 9% paraformaldehyde, 5% acetic acid/PBS) for 15 min. Following extensive PBS washes, cells were permeabilized with 0.1% Triton X-100/PBS for 10 min and incubated with 150 mM glycine to stabilize the aldehydes. […]

PCSK9 binding to LDLR = target: T1, PCSK9 binding to LDLR (Homo sapiens, UniProt Q8NBP7); test: In vitro PCSK9-LDLR competitive pull-down (immunoprecipitation with mAb-V5); details: 1 μg PCSK9, 1 μg LDLR, preincubation 4 h
T1 construct: made in house; host or cells: HEK293T
Description: FIG. 6: SEQ ID NO. 6 reduces PCSK9 binding to LDLR in vitro. Left; Coomassie staining of His6 tag purified recombinant SEQ ID NO. 6 and PCSK9 produced as described in Material and Methods. Right; PCSK9-V5-His6 (1 μg) was incubated without (−) or with (+) recombinant SEQ ID NO. 6 (2 μg) in 500 μl of immune-precipitation (IP) buffer (PBS, 1 mM CaCl2, 1% Tween-20 and protease inhibitors) for 4 h at 4° C. on a rotator. Following incubation, 1 μg of recombinant human LDLR ectodomain was added together with 50 μl of A/G-agarose beads and 1 μg of mAb-V5 antibody and incubated with rotation overnight. Samples were then centrifuged at 3,000×g for 5 min and pellets washed three times with 1 ml IP buffer and rotated for 10 min 4° C. and resuspended in 2× Laemmli loading buffer. Samples were separated by SDS-PAGE and immune-blotted as indicated. Data are representative of two independent experiments.
NO. […] NO. 3 might be due to direct competition for PCSK9 binding to the LDLR. To test this hypothesis, we subcloned the SEQ ID. NO. 6 into the pET-24 bacterial expressing vector of which recombinant protein were retrieved from E. coli and purified by metal affinity and size exclusion chromatography. The homogeneity of purified SEQ ID. NO. 6(^˜20 kDa) and recombinant PCSK9 purified from conditioned media of HEK293 transfected cells were assessed by SDS-PAGE and coomassie staining (FIG. 6; left panels). […]

T1 sequence (Q8NBP7 153-692): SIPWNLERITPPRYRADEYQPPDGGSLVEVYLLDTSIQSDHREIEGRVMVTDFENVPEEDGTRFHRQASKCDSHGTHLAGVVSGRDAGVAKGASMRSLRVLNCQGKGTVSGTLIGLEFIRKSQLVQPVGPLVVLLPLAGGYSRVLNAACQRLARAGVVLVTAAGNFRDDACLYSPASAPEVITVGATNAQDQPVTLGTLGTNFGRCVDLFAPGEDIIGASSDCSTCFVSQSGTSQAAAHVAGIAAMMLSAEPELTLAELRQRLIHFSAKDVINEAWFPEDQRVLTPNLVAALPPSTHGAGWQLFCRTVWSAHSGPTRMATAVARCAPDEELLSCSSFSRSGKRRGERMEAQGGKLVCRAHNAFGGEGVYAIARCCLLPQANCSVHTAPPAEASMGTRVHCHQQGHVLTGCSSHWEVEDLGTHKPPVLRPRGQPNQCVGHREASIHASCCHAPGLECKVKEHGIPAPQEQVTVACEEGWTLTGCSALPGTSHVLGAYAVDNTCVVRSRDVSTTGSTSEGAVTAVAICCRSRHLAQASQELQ
T1 sequence (Q8NBP7 31-152 partner limits assumed): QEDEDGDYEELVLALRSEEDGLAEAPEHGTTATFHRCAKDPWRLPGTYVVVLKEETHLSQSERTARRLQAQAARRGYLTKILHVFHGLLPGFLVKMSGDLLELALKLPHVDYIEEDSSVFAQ

LDLR pull-down with PCSK9 (PCSK9 binding to LDLR) | Molecule | Effect on PCSK9-induced LDLR degradation ([1]; HepG2, overnight, 25 nM PCSK9, 0, 10, 25 or 100 nM protein) | PCSK9-mCherry internalization in LDLR-EGFP expressing cells [2] | Block of exogenously added PCSK9 ([1]; 250 nM, HepG2, exogenous PCSK9 ~6-fold endogenous levels) | Concentration at which maximum effect on total LDLR protein levels was saturated ([1]; HepG2, overnight) [nM] | Total LDLR protein levels ([1]; HepG2, overnight, extracellular addition, endogenously secreted PCSK9)
– | SEQ ID. NO. 67: full-length recombinant GRP94 obtained from Enzo Life Sciences (Cat. #ADI-SPP-766) | reverted in a dose-dependent manner | significantly reduced | – | – | –
partially inhibited | SEQ ID. NO. 6: GRP94 CDB-CT domain, 148 aa, recombinant ~20 kDa protein purified from E. coli (protein) YGWSGNMERIMKAQAYQTGKDISTNYYASQKKTFEINPRHPLIRDMLRRIKEDEDDKTVLDLAVVLFETATLRSGYLLPDTKAYGDRIERMLRLSLNIDPDAKVEEEPEEEPEETAEDTTEDTEQDEDEEMDVGTDEEEETAKESTAE | – | – | not sufficient | ≤ 25 | significantly increases
